From paper PMC7614769, “Structural basis for Fc receptor recognition of immunoglobulin M” (Nature structural & molecular biology, 2023)

Biological target: pentameric IgM-Fc core containing Cμ4, Cμ3 and the J chain (human, UniProt P01871 106-433; P01591 23-159, N-linked glycosylation at Asn563)
Assay: BLI; FcμR (20 μg/ml) captured on AMC (anti-mouse IgG-Fc capture) biosensors by the anti-FcμR antibody RR-16; full-length or proteolysed IgM 0.08-10 nM in solution; PBS, 0.005% Tween 20, 25 °C; apparent Kd from response against IgM concentration, 1:1 binding model
Conditions: both partners purified

Kd: 700 ± 100 pM
B1: human FcμR ectodomain (receptor, UniProt O60667 17-251, looked up)
chain: LRILPEVKVEGELGGSVTIKCPLPEMHVRIYLCREMAGSGTCGTVVSTTNFIKAEYKGRVTLKQYPRKNLFLVEVTQLTESDSGVYACGAGMNTDRGKTQKVTLNVHSEYEPSWEEQPMPETPKWFHLPYLFQMPAYASSSKFVTRVTTPAQRGKVPPVHHSSPTTQITHRPRVSRASSVAGDKPRTFLPSTTASKISALEGLLKPQTPSYNHHTRLHRQRALDYGSQSGREGQG
notes: FcμR, human, ectodomain; Full-length human FcμR has 390 aa; 251 aa are extracellular: 17-aa signal peptide, 107-aa Ig-like domain, 127-aa stalk; Only the Ig-like domain is resolved in the cryo-EM maps; also called TOSO; FAIM3; source: bought: R&D, Catalog 9494-MU-050, lyophilized, suspended in PBS
